Measured values taken from patent publication US20160058880.

Key:
[1] = system: Succinyl-βALPF-doxorubicin
[2] = system: N-succinyl-beta-alanyl-L-leucyl-L-alanyl-L-leucyl-doxorubicin

Substance: TOP (recombinant human thimet oligopeptidase, R&D systems, Ref 3439-ZN)
- cleavage by purified TOP 5 nM (grade) (PhAc-ALAL-doxorubicin): +
- cleavage by purified TOP 5 nM (grade) (PhAc-GPGP-doxorubicin): -
- cleavage by purified TOP 5 nM (grade; * = less than 5% of metabolites detected) (PhAc-ALAF-doxorubicin): -*
- cleavage by purified TOP 5 nM (grade) (PhAc-DLGP-doxorubicin): -
- cleavage by purified TOP 5 nM (grade) [1]: -
- cleavage by purified TOP 5 nM (grade) (LGP-Dox): -
- cleavage by purified TOP 5 nM (grade; * = less than 5% of metabolites detected) (PhAc-AIGP-doxorubicin): -*
- cleavage by purified TOP 5 nM (grade) (PhAc-KLGP-doxorubicin): +
- cleavage by purified TOP 5 nM (grade) (PhAc-ALGP-doxorubicin): +
- cleavage by purified TOP 5 nM (grade) (PhAc-TSGP-doxorubicin): +
- cleavage by purified TOP 5 nM (grade; * = less than 5% of metabolites detected) (PhAc-ALPF-doxorubicin): -*
- cleavage by purified TOP 5 nM (grade) [2]: +
